What all share (test): SPR
(In SPR one partner is held on a chip, and binding of the other changes the refractive index at the surface.)

Assay [1] concerns the target T1, HCoV-229E RBD (294–435 aa) (human coronavirus 229E, UniProt P15423 294-435).
T1 chain: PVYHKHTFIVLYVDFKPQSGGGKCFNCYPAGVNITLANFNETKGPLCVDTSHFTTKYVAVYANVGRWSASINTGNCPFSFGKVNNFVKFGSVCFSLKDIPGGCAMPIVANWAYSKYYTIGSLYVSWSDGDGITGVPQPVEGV

For assay [2], the target named is T2, HCoV-229E S ectodomain (17–1115 aa), 229E S trimer (human coronavirus 229E, UniProt P15423 17-1115).
T2 chain: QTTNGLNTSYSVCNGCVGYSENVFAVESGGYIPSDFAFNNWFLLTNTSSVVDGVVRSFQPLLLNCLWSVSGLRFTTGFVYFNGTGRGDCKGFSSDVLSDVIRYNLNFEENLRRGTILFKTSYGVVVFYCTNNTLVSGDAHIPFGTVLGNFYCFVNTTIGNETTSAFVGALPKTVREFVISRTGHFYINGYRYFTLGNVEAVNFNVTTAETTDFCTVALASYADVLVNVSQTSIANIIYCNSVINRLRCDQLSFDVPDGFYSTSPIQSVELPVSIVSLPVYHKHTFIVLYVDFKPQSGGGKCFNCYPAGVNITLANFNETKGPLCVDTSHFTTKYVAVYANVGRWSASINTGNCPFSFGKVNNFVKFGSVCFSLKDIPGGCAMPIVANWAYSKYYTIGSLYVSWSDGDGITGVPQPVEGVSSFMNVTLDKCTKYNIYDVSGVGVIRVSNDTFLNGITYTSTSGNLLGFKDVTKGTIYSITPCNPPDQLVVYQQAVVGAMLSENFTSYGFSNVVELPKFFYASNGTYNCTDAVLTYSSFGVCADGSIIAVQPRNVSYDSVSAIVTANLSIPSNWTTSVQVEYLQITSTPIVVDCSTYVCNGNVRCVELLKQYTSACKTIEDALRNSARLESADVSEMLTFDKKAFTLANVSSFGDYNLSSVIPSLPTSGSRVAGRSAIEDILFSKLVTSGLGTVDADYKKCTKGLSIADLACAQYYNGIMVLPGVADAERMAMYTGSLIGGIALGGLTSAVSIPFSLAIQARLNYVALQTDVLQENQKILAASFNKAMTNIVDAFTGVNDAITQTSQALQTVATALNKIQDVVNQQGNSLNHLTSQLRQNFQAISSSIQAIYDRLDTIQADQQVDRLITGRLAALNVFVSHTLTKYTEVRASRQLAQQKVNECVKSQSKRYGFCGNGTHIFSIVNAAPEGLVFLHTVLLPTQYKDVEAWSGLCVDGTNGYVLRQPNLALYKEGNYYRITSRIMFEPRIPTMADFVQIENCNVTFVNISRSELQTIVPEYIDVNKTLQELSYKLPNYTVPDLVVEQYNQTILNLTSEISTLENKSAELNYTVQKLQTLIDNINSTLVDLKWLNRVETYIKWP

In assay [3] the target is T1, HCoV-229E RBD (294–435 aa).
Assay [4] concerns the target T2, HCoV-229E S ectodomain (17–1115 aa), ….
The target of assay [5] is T1, HCoV-229E RBD (294–435 aa).
In assay [6] the target is T2, HCoV-229E S ectodomain (17–1115 aa), ….

Like-named read-outs stand apart in the source and are kept apart here.

These results are taken from publication PMC9636267 (2022).

B1: Fab S11 (Fab, V domains shown)
VH: EVQLVESGGGLVQPGGSLRLSCAASGFNISSSYIHWVRQAPGKGLEWVASIYSSYGYTYYADSVKGRFTISADTSKNTAYLQMNSLRAEDTAVYYCARWWITFGGAGGGLDYWGQGTLVTVSS
VL: DIQMTQSPSSLSASVGDRVTITCRASQSVSSAVAWYQQKPGKAPKLLIYSASSLYSGVPSRFSGSRSGTDFTLTISSLQPEDFATYYCQQGYAWRNTFGQGTKVEIK
For orientation: koff means the rate constant with which the complex falls apart. Higher therefore signals fast dissociation. What is called Kd is the concentration at which binding is half-saturated. In the case of B1, the koff in assay [1] is 0.00081 s⁻¹; in assay [2], 0.00054 s⁻¹. Moreover, the Kd in assay [3] came to 0.2 nM; in assay [4], 0.4 nM; in assay [5], 0.21 nM; in assay [6], 0.38 nM.
